The assay has as its target 10×Histidine-tagged amino acids 1-416 of potato virus X RNA-dependent RNA polymerase, 10×His-MET_(1-416) (potato virus X). The assay can be described thus: cross-linking.

Where only a bound is given, the exact number is not on record here.

As usually defined, the stoichiometry N is the number of molecules, sites or subunits per partner or assembly.

Take “10×Histidine-tagged amino acids 1-416 of potato virus X RNA-dependent RNA polymerase, 10×His-MET_(1-416) (domain or fragment)”: the stoichiometry N was above 5.
